13 molecules from patent publication US20230049752A1 (University of California, published 2023) can be followed below.

The target of assay [1] is human Claudin-6 (CLDN6) (human) (UniProt P56747). The assay is described as follows: FACS, 1.5 ug Ab, 293T clone expressing human CLDN6 (2nd Ab only 768.07). Background: Flow cytometry measures light scatter and fluorescence of single cells or particles in a stream.
The target is the same in assay [2]. Briefly: FACS, 0.3 ug Ab, 293T clone expressing human CLDN6 (2nd Ab only 768.07).
For assay [3] the target is unchanged. Briefly: FACS, 0.3 ug Ab, ARK2 cells (2nd Ab only 1351.21).
The target is the same in assay [4]. Briefly: FACS, 1.5 ug Ab, OVCA429 cells (2nd Ab only 885.77).
Assay [5] shares this target. Briefly: FACS, 1.5 ug Ab, ARK2 cells (2nd Ab only 1351.21).
For the next assay, the target named is T1, mouse Claudin-6 (CLDN6) (mouse, UniProt Q9Z262 1-219).
T1 construct: whole, on cells; GFP fusion on engineered HEK293T cells; also called Mouse CLDN6; murine CLDN6
T1 sequence (looked up): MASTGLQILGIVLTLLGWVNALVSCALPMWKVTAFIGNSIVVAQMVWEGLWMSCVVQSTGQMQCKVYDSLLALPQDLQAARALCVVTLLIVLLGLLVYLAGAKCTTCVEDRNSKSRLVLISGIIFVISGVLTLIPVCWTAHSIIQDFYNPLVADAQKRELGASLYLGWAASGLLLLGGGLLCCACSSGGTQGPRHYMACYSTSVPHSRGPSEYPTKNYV
Briefly: FACS, 293T clone expressing mouse CLDN6, dose not stated (2nd Ab only 1061.72). The procedure: Two doses (1.5 μg or 0.3 μg) of the humanized antibodies were tested for binding to either human CLDN6 or murine CLDN6 which proteins were expressed by engineered 293T clones.

B1: AB9-chim (antibody, V domains shown)
VH: EVQLQQSGPELVKPGASVKMSCKASGYRFTDYNMHWVKQSHGKSLEWIGYINPNNGGTNYNQNFKGKATLTVNKSSSTAYMELRSLTSEDSAAYYCARDYLYFFDCWGQGTTLTVSS
VL: DIQMTQSPASQSASLGESVTITCLASQTIGTWLAWYQQKPGKSPQLLIYAAASLADGVPSRFSGSGSGTRFSFKISSLQAEDFVSYYCQQLYSIPRTFGGGTKLEIK
For B1, the FACS fluorescence in assay [1] stood at 72000; in assay [2], 46700; in assay [3] it was 3510; in assay [4] it was 3570; in assay [5], 4490.

B2: AB9-3 (antibody, V domains shown)
VH: QVQLVQSGAEVKKPGASVKMSCKASGYRFTDYNMHWVRQAPGQGLEWIGYINPNNGGTNYAQKFQGRATLTVDTSTSTAYMELSSLRSEDTAVYYCARDYLYFFDCWGQGTLLTVSS
VL: DIQMTQSPSSLSASVGDRVTITCLASQTIGTWLAWYQQKPGKAPKLLIYAAASLADGVPSRFSGSGSGTDFTFTISSLQPEDFVTYYCQQLYSIPRTFGQGTKLEIK
With B2, the FACS fluorescence in assay [1] stood at 24600; in assay [2] it was 9500; in assay [3], 1140; in assay [4], 1260; in assay [5], 1470.

B3: AB1-7 (antibody, V domains shown)
VH: QVQLVQSGAEVKKPGASVKMSCKASGYTFTTYTMHWVRQAPGQGLEWIGFINPSSGYTDYAQKFQGRVTLTADTSTSTVYMELSSLRSEDTAVYYCANGDYYVAYWGQGTLVTVSS
VL: DIQLTQSPSSLSASVGDRVTMTCTASSSVSSTYFHWYQQKPGKAPKLLIYSTSNLASGVPSRFSGSGSGTDYTLTISSMQPEDAATYYCHQYHRSPLTFGQGTKLEIK
notes: humanized
For the molecule B3, the FACS fluorescence came out at 207000 in assay [1]; 79200 in assay [2]; 99700 with mouse Claudin-6 (CLDN6); 4440 in assay [3]; 44700 in assay [4]; 11200 in assay [5].

B4: AB1-4 (antibody, V domains shown)
VH: QVQLVQSGAEVKKPGASVKVSCKASGYTFTTYTMHWVRQAPGQGLEWMGFINPSSGYTDYAQKFQGRVTMTADTSTSTVYMELSSLRSEDTAVYYCANGDYYVAYWGQGTLVTVSS
VL: DIQLTQSPSSLSASVGDRVTMTCTASSSVSSTYFHWYQQKPGKAPKLLIYSTSNLASGVPSRFSGSGSGTDYTLTISSMQPEDAATYYCHQYHRSPLTFGQGTKLEIK
notes: humanized
Turning to B4, the FACS fluorescence in assay [1] was found to be 197000; in assay [2], 102000; in the assay with mouse Claudin-6 (CLDN6) it was 75900; in assay [3] it was 3640; in assay [4] it was 34600; in assay [5], 10000.

B5: AB1-5 (antibody, V domains shown)
VH: QVQLVQSGAEVKKPGASVKVSCKASGYTFTTYTMHWVRQAPGQGLEWMGFINPSSGYTDYAQKFQGRVTMTADTSTSTVYMELSSLRSEDTAVYYCANGDYYVAYWGQGTLVTVSS
VL: DIQLTQSPSSLSASVGDRVTMTCTASSSVSSTYFHWYQQKPGKAPKLWIYSTSNLASGVPSRFSGSGSGTDYTLTISSMQPEDAATYYCHQYHRSPLTFGQGTKLEIK
notes: humanized
Turning to B5, the FACS fluorescence in assay [1] amounted to 213000; in assay [2] it was 138000; in the assay with mouse Claudin-6 (CLDN6) it was 128000; in assay [3], 7490; in assay [4] it was 54300; in assay [5], 22400.

B6: AB1-3 (antibody, V domains shown)
VH: QVQLVQSGAEVKKPGASVKVSCKASGYTFTTYTMHWVRQAPGQGLEWMGFINPSSGYTDYAQKFQGRVTMTADTSTSTVYMELSSLRSEDTAVYYCANGDYYVAYWGQGTLVTVSS
VL: DIQMTQSPSSLSASVGDRVTITCTASSSVSSTYFHWYQQKPGKAPKLLIYSTSNLASGVPSRFSGSGSGTDYTLTISSLQPEDFATYYCHQYHRSPLTFGQGTKLEIK
notes: humanized
Take B6: the FACS fluorescence in assay [1] amounted to 142000; in assay [2] it was 142000; with mouse Claudin-6 (CLDN6), 89300; in assay [3], 2830; in assay [4], 27500; in assay [5] it was 10800.

B7: AB1-8 (antibody, V domains shown)
VH: QVQLVQSGAEVKKPGASVKMSCKASGYTFTTYTMHWVRQAPGQGLEWIGFINPSSGYTDYAQKFQGRVTLTADTSTSTVYMELSSLRSEDTAVYYCANGDYYVAYWGQGTLVTVSS
VL: DIQLTQSPSSLSASVGDRVTMTCTASSSVSSTYFHWYQQKPGKAPKLWIYSTSNLASGVPSRFSGSGSGTDYTLTISSMQPEDAATYYCHQYHRSPLTFGQGTKLEIK
notes: humanized
Turning to B7, the FACS fluorescence in assay [1] worked out at 210000; in assay [2], 98800; with mouse Claudin-6 (CLDN6), 122000; in assay [3] it was 5810; in assay [4], 66000; in assay [5] it was 17600.

B8: AB1-Chim (antibody, V domains shown)
VH: QVQLQQSAAELARPGASVKMSCKASGYTFTTYTMHWVKQRPGQGLEWIGFINPSSGYTDYNQKFKDRTTLTADKSSSTVYMQLSSLTSEDSAVYYCANGDYYVAYWGQGTLVTVSA
VL: QIVLTQSPAIMSASLGERVTMTCTASSSVSSTYFHWYQQKPGSSPKLWIYSTSNLASGVPRRFSGSASGTSYSLTISSMEAEDAATYYCHQYHRSPLTFGAGTKLELK
Consider B8, for which the FACS fluorescence was determined as 364000 in assay [1]; 312000 in assay [2]; 514000 in the assay with mouse Claudin-6 (CLDN6); 58800 in assay [3]; 177000 in assay [4]; 51900 in assay [5].

B9: AB3-3 (antibody, V domains shown)
VH: EVQLLESGGGLVQPGGSMRLSCAASGFTFSNYWMNWVRQAPGKGLEWVAQIRLKSDNYATHYADSVKGRFTISRDDSKNTVYLQMNSLRAEDTGVYYCNDGPPSGCWGQGTLLTVSS
VL: DIQMTQSPSSLSASVGDRVTITCRISENIYSYLAWYQQKPGKAPKLLVYNAKILVEGVPSRFSGSGSGTDFTLTISSLQPEDFGTYYCQHHYTVPWTFGQGTKLEIK
notes: humanized
As for B9, the FACS fluorescence is 340000 in assay [1]; 251000 in assay [2]; 23000 with mouse Claudin-6 (CLDN6); 1160 in assay [3]; 88700 in assay [4]; 54900 in assay [5].

B10: AB3-5 (antibody, V domains shown)
VH: EVQLLESGGGLVQPGGSMRLSCAASGFTFSNYWMNWVRQAPGKGLEWVAQIRLKSDNYATHYADSVKGRFTISRDDSKNTVYLQMNSLRAEDTGVYYCNDGPPSGYWGQGTLLTVSS
VL: DIQMTQSPSSLSASVGDRVTITCRISENIYSYLAWYQQKPGKAPKLLVYNAKILVEGVPSRFSGSGSGTDFTLTISSLQPEDFGTYYCQHHYTVPWTFGQGTKLEIK
notes: humanized
Regarding B10, the FACS fluorescence in assay [1] is 48600; in assay [2], 13300; in the assay with mouse Claudin-6 (CLDN6) it was 783; in assay [3], 1280; in assay [4], 2950; in assay [5] it was 2910.

B11: AB3-4 (antibody, V domains shown)
VH: EVQLLESGGGLVQPGGSMRLSCAASGFTFSNYWMNWVRQAPGKGLEWVAQIRLKSDNYATHYADSVKGRFTISRDDSKNTVYLQMNSLRAEDTGVYYCNDGPPSGYWGQGTLLTVSS
VL: DIQMTQSPSSLSASVGDRVTITCRISENIYSYLAWYQQKPGKAPKLLIYNAKILVEGVPSRFSGSGSGTDFTLTISSLQPEDFATYYCQHHYTVPWTFGQGTKLEIK
notes: humanized
For B11, the FACS fluorescence in assay [1] was 55800; in assay [2], 11600; in the assay with mouse Claudin-6 (CLDN6), 1520; in assay [3], 1320; in assay [4] it was 2960; in assay [5], 1460.

B12: AB3-2 (antibody, V domains shown)
VH: EVQLLESGGGLVQPGGSMRLSCAASGFTFSNYWMNWVRQAPGKGLEWVAQIRLKSDNYATHYADSVKGRFTISRDDSKNTVYLQMNSLRAEDTGVYYCNDGPPSGCWGQGTLLTVSS
VL: DIQMTQSPSSLSASVGDRVTITCRISENIYSYLAWYQQKPGKAPKLLIYNAKILVEGVPSRFSGSGSGTDFTLTISSLQPEDFATYYCQHHYTVPWTFGQGTKLEIK
notes: humanized
Consider B12, for which the FACS fluorescence was 396000 in assay [1]; 309000 in assay [2]; 31700 with mouse Claudin-6 (CLDN6); 14700 in assay [3]; 85900 in assay [4]; 33600 in assay [5].

B13: AB3-chim (antibody, V domains shown)
VH: EVKLEESGGGLVQPGGSMKLSCVASGFTFSNYWMNWVRQSPEKGLEWVAQIRLKSDNYATHYAESVKGRFTISRDDSKRSVYLQMNNLRAEDTGTYYCNDGPPSGCWGQGTTLIVSS
VL: DIQMTQSPASLSASVGETVTITCRISENIYSYLAWYQQKQGKSPQLLVYNAKILVEGVPSRFSGSGSGTQFSLKINSLQPEDFGNYYCQHHYTVPWTFGGGTKLEIK
On to B13, for which the FACS fluorescence worked out at 459000 in assay [1]; 267000 in assay [2]; 67900 with mouse Claudin-6 (CLDN6); 17100 in assay [3]; 138000 in assay [4]; 29100 in assay [5].
